Measured values published in US10456446B2, “Use of human small leucine zipper protein in osteogenesis procedure” (Korea University Research and Business Foundation, priority 2013, dated 2019).

How the values were obtained:
PPARγ2 = molecular target: T1, PPARγ2 (Homo sapiens, UniProt P37231); assay: Fluorescence microscopy, subcellular localization with PPARγ2 in C3H10T1/2 cells; format: cell-based; settings: GFP-PPARγ2 and Flag-sLZIP in C3H10T1/2 cells
T1 construct: expressed in transfected cells; host or cells: 293T
T1 sequence (P37231 1-505): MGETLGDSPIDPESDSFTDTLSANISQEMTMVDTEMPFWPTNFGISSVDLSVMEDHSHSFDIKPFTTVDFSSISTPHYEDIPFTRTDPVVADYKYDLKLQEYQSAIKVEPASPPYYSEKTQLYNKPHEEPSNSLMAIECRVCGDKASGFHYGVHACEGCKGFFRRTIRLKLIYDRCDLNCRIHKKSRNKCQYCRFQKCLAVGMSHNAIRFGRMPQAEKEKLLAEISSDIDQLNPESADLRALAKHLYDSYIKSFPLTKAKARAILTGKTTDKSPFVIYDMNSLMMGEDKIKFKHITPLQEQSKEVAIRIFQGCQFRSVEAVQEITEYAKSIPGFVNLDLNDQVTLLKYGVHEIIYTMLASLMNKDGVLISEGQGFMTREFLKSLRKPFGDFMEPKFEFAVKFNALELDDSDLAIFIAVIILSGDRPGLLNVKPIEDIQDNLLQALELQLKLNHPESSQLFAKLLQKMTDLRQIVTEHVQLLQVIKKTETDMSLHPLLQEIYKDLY
Method: C3H10T1/2 cells were transiently ci-transfected with Flag-sLZIP, GFP-PPARγ2 or GFP-sLZIP, and HDAC3 was grown on cover slip. After 24 hours, the cells were fixed with 4% paraformaldehyde for 10 minutes and permeabilized 0.2% Triton-X 100 for 5 minutes. The cells were incubated with 1% BSA for one hour, and then incubated with anti-Flag and anti-HDAC3 antibodies overnight at 4° C. The cells were washed with PBS, and then were incubated with Texas Red-labeled antibodies for 2 hours. A cover slide was washed with PBS, and mounted on and examined using a LSM 510 META confocal microscopy (Carl Zeiss, Jena, Germany).
In order to examine whether the transcriptional activity of PPARγ2 is regulated by interaction with sLZIP, interaction between sLZIP and PPARγ2 was examined. For this purpose, 293T cells were transfected with GST-sLZIP and Myc-PPARγ2. Cell lysates were obtained and GST pull-down analysis was performed using a glutathione 4B bead. A protein complex was analyzed in SDS-PAGE and then immunoblotted with specific antibodies (FIG. 2A). […] Proteins bound to the bead were analyzed in SDS-PAGE, and then immunoblotted with anti-PPARγ2 and anti-His antibodies (FIG. 2C). GFP-PPARγ2 and Flag-sLZIP constructs were expressed in C3H10T1/2 cells, and analyzed using mouse anti-Flag and Texas Red-labeled anti-mouse antibodies under a fluorescence microscope. […]

ATDC5 cells = assay: Chondrocyte differentiation marker mRNA in ATDC5 cells, RT-PCR and real-time PCR; format: cell-based; settings: sLZIP 0.1 μg to 0.5 μg, in a reaction with insulin
Method: According to instructions of the manufacturer, a TRIzol reagent (Invitrogen, Carlsbad, Calif.) was added to directly lyse cells in a culture dish. Accupower RT PreMix (BioNeer, Daejeon, Korea) was used to synthesize cDNA from 2 μg of total RNA. A reaction was performed for 60 minutes at 42° C. and for 5 minutes at 94° C. PCR amplification was performed using oligomers listed in Table 2 and a Hipi PCR Mix Kit (ELPIS). As an internal control group, GAPDH was amplified. A PCR product was subjected to electrophoresis in 1-2% (w/v) agarose gel containing 0.5 μg/mL ethidium bromide. A size of the PCR product was measured by comparing it with 1 kb DNA ladder marker (Invitrogen). An intensity of bands amplified according to RT-PCR was analyzed using MultiImage™ Light Cabinet (version 5.5, Alpha Innotech Corp., San Leandro, Calif.).
Real-time PCR was performed in LightCycler 480 using a SYBR Green Master Mix (Roche, Mannheim, Germany). β-actin was used as an internal control group. A target gene expression level rate with respect to β-actin was calculated using CT method. A Ct value is defined as a PCR cycle number at which a fluorescence signal reaches a fixed target threshold. Experiments were technically repeated three times for each experiment. […]

[1] = Solubility in saline or buffer solution; format: physicochemical

B1: sLZIP: human small leucine-zipper protein, isoform of LZIP, 354 amino acids, no transmembrane domain, GenBank FJ263669, SEQ ID NO: 1 (protein, listed as Homo sapiens)
chain: MELELDAGDQDLLAFLLEESGDLGTAPDEAVRAPLDWALPLSEVPSDWEVDDLLCSLLSPPASLNILSSSNPCLVHHDHTYSLPRETVSMDLESESCRKEGTQMTPQHMEELAEQEIARLVLTDEEKSLLEKEGLILPETLPLTKTEEQILKRVRRKIRNKRSAQESRRKKKVYVGGLESRVLKYTAQNMELQNKVQLLEEQNLSLLDQLRKLQAMVIEISNKTSSSSMYSSDTRGSLPAEHGVLSRQLRALPSEDPYQLELPALQSEVPKDSTHQWLDGSDCVLQAPGNTSCLLHYMPQAPSAEPPLEWPFPDLFSEPLCRGPILPLQANLTRKGGWLPTGSPSVILQDRYSG
For B1, the “subcellular localization of sLZIP and PPARγ2” value (PPARγ2) was “localized in the nucleus together with PPARγ2”, the “expression of chondrocyte differentiation marker genes (Sox9, ColIIIA1)” value (ATDC5 cells) was “no influence” and the solubility [1] was “very soluble”.
